According to the DeepSol protein solubility set:

Experiment: soluble on expression in E. coli; label from the status in PepcDB or PDB records

Row | Sequence | soluble on expression in E. coli
1 | MGSDKIHHHHHHEEEEQKPAYGKIDVAVSVTLPQPESVNTLTRAGGPYTDTDIKNADLLIFDKDAKFMERVKVENDRLVITGTGINFTVRLDATSERRIIHLVANGRSADGTSDRLNFGDITPGMTENAAISSLQTASLEHVDEGESTLLNHVMPLVMWGRFALNGINIVTKAEGVKLLRSTACIQVKKGNGGGNTGLDDFVIEGITVHQGACHGFLAPTDCTGEVNTPVVTNPVTGGIYLDYRKGWVNGAEPSLYIYERNCSASDYMGVVIAARYKGKKGYYKVVMNGNDGSPLNIVRNHRYIVTVVGVNGPGYESPDIAVASAPSNALKVELTDEDTDLPCIVADGQYRMASSNNVFSLYGKTGVTTSATGVDICTVYSSRGIQPVLTLPDDCNWLTNLSAQALGSNKYKITGDFTSAANDAVATTLTMTCDNLSQPVRVSWNPIISDQKDTDSFVLDLVGSTDRNWTVRVLNPTSPGWLFLHPSAASPGALPGDGMVSELSSKYSSHAYLHVAFGASRRGTVQMTSASSGETVARKIVVIQ | not soluble
2 | MSNTQKKNVPELRFPGFEGEWEEKKLGNLTTKIGSGKTPKGGSENYTNKGIPFLRSQNIRNGKLNLNDLVYISKDIDDEMKNSRTYYGDVLLNITGASIGRTAINSIVETHANLNQHVCIIRLKKEYYYNFFGQYLLSRKGKRKIFLAQSGGSREGLNFKEIANLKIFTPTIFEEQQKIGKFFSKLDRQIELEEQKLELLQQQKKGYMQKIFTQELRFKDENGEEYPEWENKFIKDIFIFENNRRKPITSSLREKGLYPYYGATGIIDYVKDYLFNNEERLLIGEDGAKWGQFETSSFIANGQYWVNNHAHVVKSNDHNLFFMNYYLNFKELRAFVTGNAPAKLTHANLCNINLKIPCLTEQDKVSALLKSIDNKMNNQMNRIELLKERKKGLLQKMFI | not soluble
3 | MSLKIKKSKLIGFVVADITNPFSVAAFRGVEEVCDQYGYSIMVCNTDNSPEKEREMLLKLEAHSVEGLILNATGENKDVLRAFAEQQIPTILIDRKLPDLKLDTVTTDNRWITKEILQKVYSKGYTDVALFTEPISSISPRAERAAVYQEMASVQNVNGLVRLHEIDVKDKEQLKAELRSFHKEMPEQKKAILALNGLIMLKIISCMEELGLRIPQDIGIAGFDDTEWYKLIGPGITTIAQPSHDMGRTAMERVLKRIEGDKGAPQTIELEAKVIMRKSLEGHHHHHH | soluble
4 | MSDTNYAVIYDLHSHTTASDGCLTPEALVHRAVEMRVGTLAITDHDTTAAIAPAREEISRSGLALNLIPGVEISTVWENHEIHIVGLNIDITHPLMCEFLAQQTERRNQRAQLIAERLEKAQIPGALEGAQRLAQGGAVTRGHFARFLVECGKASSMADVFKKYLARGKTGYVPPQWCTIEQAIDVIHHSGGKAVLAHPGRYNLSAKWLKRLVAHFAEHHGDAMEVAQCQQSPNERTQLAALARQHHLWASQGSDFHQPCPWIELGRKLWLPAGVEGVWQLWEQPQNTTERELLEHHHHHH | not soluble
5 | MSSSNKESASDLIRAKDAGLLDIWALPSFDPHVEPEPEPEPEPVDEPAEMEEVPLDEVQPLTLEELESIRQEAWNEGFATGEKEGFHSTQLKVRQEAEVVLAAKVASLEQLMGHLLAPIAEQDTQIEKAVIHLVEHIARQVIQRELVTDSGQIASVLRDALKLLPMGAQNLRIFINPQDFLLVKAMRERHEEAWKIVEDEDLLPGGCRIETEHSRIDASVETRIALAISKMHDQLHEQVTHPAAADLSVDLDASPVSTAKTEDSDVDALDAP | not soluble
6 | TRELEDAQAMTEGERRKLASVIAYMTDGVIATNRNGAIILLNSPALELLNVSRETALEMPITSLLGLQENYTFEDLVEQQDSMLLEIERDDELTVLRVNFSVIQREHGKIDGLIAVIYDVT | not soluble
7 | MAHHHHHHMGWFRSSASPEAGTATAEAPAAAAEHGSQHRQPQPEANSPAPLTEAEQLDLLVAGARLDDTEAQDTARFLGSNRRHMYADGLLSCAAYTFSGLHHIQGQSSALTLLTMWTVGTTFLVDVAERKYLQESLQGTLRTAKTTSEAEKPLLLDQPPHNATPASTPRKAAVVPAMPTSSDSLSSAIKKPAPRDKEKLAEQQRKVFLTQAVASWLWMLASFQQFKVHKRLKWCGYSSWMGLGCAGYYTTRHLYNLLVK | soluble
8 | PSSAVGSGSEGFIVRLPAALLFKEGGIEVENSDGFLFVKRMAEIVNRLPKDVHVEVRGHTDTLPLPAQAPQDKLELTAKRALSVSKLLVKEGIDPKRITTVGRGDQDPLTHARTPEAQESNRRVDIYLYPKE | soluble
